Measurements reported in patent publication EP4663661A1 (Hainan Simcere Zaiming Pharmaceutical Co., Ltd., dated 2025).
Like-named read-outs stand apart in the source and are kept apart here.

T1: his-tagged human CDH6 extracellular region protein (hCDH6 ECD-his) (human, UniProt P55285 54-615)
T1 construct: also called hCDH6-his; Human CDH6-his; not shown: his tag
T1 sequence: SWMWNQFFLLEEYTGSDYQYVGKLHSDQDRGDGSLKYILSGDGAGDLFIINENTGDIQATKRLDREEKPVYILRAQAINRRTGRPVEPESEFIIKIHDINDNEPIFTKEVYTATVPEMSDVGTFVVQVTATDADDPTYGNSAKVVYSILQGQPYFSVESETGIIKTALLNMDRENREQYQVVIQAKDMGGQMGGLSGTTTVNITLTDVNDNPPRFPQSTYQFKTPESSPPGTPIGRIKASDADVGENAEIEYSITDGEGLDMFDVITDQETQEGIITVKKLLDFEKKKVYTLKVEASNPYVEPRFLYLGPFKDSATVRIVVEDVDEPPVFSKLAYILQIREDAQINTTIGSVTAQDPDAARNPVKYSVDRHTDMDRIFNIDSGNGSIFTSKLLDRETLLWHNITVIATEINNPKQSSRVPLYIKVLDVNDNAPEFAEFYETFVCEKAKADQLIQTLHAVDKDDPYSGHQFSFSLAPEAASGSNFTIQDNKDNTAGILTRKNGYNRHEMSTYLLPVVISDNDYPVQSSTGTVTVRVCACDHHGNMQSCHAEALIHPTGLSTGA


Key:
[1] = target: human CDH6 protein, full length, on cells (OVCAR3, PA-1) (human) (UniProt P55285); assay: FACS, PA-1 cells
[2] = target: murine CDH6 protein (mCDH6 ECD-his) (mouse) (UniProt P97326); assay: ELISA, antigen coated
[3] = target: his-tagged human CDH6 extracellular region protein (hCDH6 ECD-his) (human) (UniProt P55285); assay: ELISA, antigen coated
[4] = target: monkey CDH6 protein (cynoCDH6 ECD-his) (monkey (cyno)); assay: ELISA, antigen coated
[5] = target: human CDH6 protein, full length, on cells (OVCAR3, PA-1) (human) (UniProt P55285); assay: FACS, OVCAR3 cells
[6] = target: human CDH6 with EC2 removed, on HEK293T cells (HEK293T-hCDH6-EC2 deletion) (human) (UniProt P55285); assay: FACS, HEK293T-hCDH6-EC2 deletion cells
[7] = target: human CDH6 with EC3 removed, on HEK293T cells (HEK293T-hCDH6-EC3 deletion) (human) (UniProt P55285); assay: FACS, HEK293T-hCDH6-EC3 deletion cells
[8] = target: human CDH6 with EC5 removed, on HEK293T cells (HEK293T-hCDH6-EC5 deletion) (human) (UniProt P55285); assay: FACS, HEK293T-hCDH6-EC5 deletion cells
[9] = target: human CDH6 with EC4 removed, on HEK293T cells (HEK293T-hCDH6-EC4 deletion) (human) (UniProt P55285); assay: FACS, HEK293T-hCDH6-EC4 deletion cells
[10] = target: human CDH6 with EC1 removed, on HEK293T cells (HEK293T-hCDH6-EC1 deletion) (human) (UniProt P55285); assay: FACS, HEK293T-hCDH6-EC1 deletion cells
[11] = target: T1, his-tagged human CDH6 extracellular …; assay: SPR Biacore, antibody captured on Protein A chip
[12] = target: T1, his-tagged human CDH6 extracellular …; assay: ELISA, antigen coated
[13] = target: T1, his-tagged human CDH6 extracellular …; assay: ELISA, antigen coated; remark: listed apart in the source

Row | Molecule | Max OD450 [2] [OD450] | EC50 [2] [pM] | Max MFI [6] [MFI] | Max MFI [7] [MFI] | Max MFI [8] [MFI] | Max MFI [9] [MFI] | Max MFI [10] [MFI] | further results
1 | hIgG1 (antibody) | 0.1 |  |  |  |  |  |  | Max MFI [1]: 64 MFI; Max OD450 [3]: 0.07 OD450; Max OD450 [4]: 0.06 OD450; Max MFI [5]: 63 MFI
2 | CHI-CDH6-7 (antibody, human IgG1, kappa, V domains shown) VH: EVKLVESGGGLVKPGGSLKVSCAASGFTFSDHGMAWVRQAPGKGPEWVAFISNLAYSIYYADTVTGRFTISRENAKNTLYLEMSSLRSEDTAMYYCARVYVKWYFDVWGAGTTVTVSS VL: DIQMTQSPASLSASVGETVTITCRASENIDSYLAWYQQKQGKSPQLLVFAATLLADGVPSRFSGSGSGTQYSLKINSLQSEDVARYYCQHYYSTPLTFGAGTKLELKR | 2.12 | 58 | 13000 | 9060 | 1020 | 17400 | 88 | 
3 | hCDH6-1-H1L1 (antibody, human IgG1, kappa, V domains shown) VH: EVQLVQSGAEVKKPGSSVKVSCKASGYTFSNYWMHWVRQAPGQGLEWMGDIDPSHSETHYTQKFKDRVTITVDKSTSTAYMELSSLRSEDTAVYYCARGDLGRFDYWGQGTTVTVSS VL: DIVMTQSPDSLAVSLGERATINCRASESVSIHGTHLMHWYQQKPGQPPKLLIYAASNLESGVPDRFSGSGSETDFTLTISSLQAEDVAVYYCQQSFEDPWTFGGGTKVEIKR |  |  |  |  |  |  |  | kon [11]: 2100 M⁻¹ s⁻¹
4 | CHI-CDH6-3 (antibody, human IgG1, kappa, V domains shown) VH: QVQLQQPGAELVKPGASVKLSCKASGYTFTSYWIHWVKQRPGQGLEWIGEINPSNGVTNCNENFKSKATLTVDKSSSTAYMQLSSLTSEDSAVYYCTIPNLLWWYFDVWGAGTTVTVSS VL: DIQMTQSPASLSVSVGETVTITCRASENIYSNLAWYQQKQGKSPQLLVYEATNLADGVPSRFSGSGSGTQYSLKINSLQSEDFGSYYCQHFWGTLWTFGGGTKLEIKR | 2.38 | 51 | 7550 | 689 | 5610 | 16800 | 11100 | 
5 | CHI-CDH6-14 (antibody, human IgG1, kappa, V domains shown, also called CHI- hCDH6-14) VH: QIQLQQSGPELVKPGTSVKISCKASGYTFTDNYINWVRQRPGQGLEWIGWIYPGTGNSYYNEKFKGKATLTVDTSSSTAYMQFSSLTSEDSAVYLCASSYGDSFDYWGQGTTLTVSS VL: DIQMTQTTSSLSASLGNRVTISCRASQDIRNYLNWYQQKPDGTFKLLISYTSRLHSGVPSRFSGSGSGTDYSLTVSNLEPEDIATYYCQQYSQLPWTFGGGSRLEIKR | 2.48 | 49 | 814 | 755 | 4040 | 26600 | 7210 | Max OD450 [12]: 2.5 OD450; Max OD450 [13]: 2.65 OD450
6 | CHI-CDH6-5 (antibody, human IgG1, kappa, V domains shown) VH: QVQLQQSGAELVRPGTSVKMSCKAAEYTFTNYWIGWVKQRPGHGLEWIGDLYPGGDHANYNEKFEGKATLTADTSSSTAYMQLSSLTSEDSAIYYCARGMLTTGFDSWGQGTTLTVSS VL: DIVMSQSPSSLAVSAGEKVTMSCKSSQSLFNSRTRKNYLAWYQQKPGQSPKLLIYWASTRESGVPDRFTGSGSGTDFTLTISSVQAEDLAVYYCKQSYYLRTFGGGTKLEIKR | 1.92 | 46 | 343 | 12200 | 4240 | 18700 | 112 | 
7 | DS-H01L02 (antibody, human IgG1, kappa, V domains shown) VH: EVQLVQSGAEVKKPGASVKVSCKASGYTFTRNFMHWVRQAPGQGLEWMGWIYPGDGETEYAQKFQGRVTITADTSTSTAYMELSSLRSEDTAVYYCARGVYGGFAGGYFDFWGQGTLVTVSS VL: DIQMTQSPSSLSASVGDRVTITCKASQNIYKNLAWYQQKPGKAPKLLIYDANTLQTGVPSRFSGSGSGSDFTLTISSLQPEDFATYFCQQYYSGWAFGQGTKVEIKR | 0.6 |  | 8390 |  | 1530 | 11800 | 5290 | 

Continued, in another order:

Row | Max OD450 [2] [OD450] | EC50 [2] [pM] | Max MFI [6] [MFI] | Max MFI [7] [MFI] | Max MFI [8] [MFI] | Max MFI [9] [MFI] | Max MFI [10] [MFI] | Molecule | further results
8 | 1.6 | 25 |  |  |  |  |  | CHI-CDH6-6 (antibody, human IgG1, kappa, V domains shown) VH: EVQLQQSGPELVKPGDSVKMSCKASGYTFTDYYMAWVRQSHRKSLEWIGYIFPNSGGTDYSQKFKGKATLTVDKSSSTVYMELHSLTSEDSAVYYCARELGADYGDYYAMDHWGQGTSVSVSS VL: DIQMTQSPASLSASVGETVTITCRASENIDSYLAWYQQKQGKSPQLLVYSATLLADGVPSRFSGSGSGTQYSLKINSLKSEDVARYYCQHYYRTPPTFGSGTKLEIKR | 
9 | 1.82 | 28 |  |  |  |  |  | CHI-CDH6-8 (antibody, human IgG1, kappa, V domains shown) VH: EVQLQQSGPELVKPGDSVKMSCKASGYTFTDYYMAWIKQNHGKSLEWIGYIYPNNGGTDYNQKFRGKATLTVDKSSSAAYMELHSLTSEDSAVYYCAREIGTLYGDYYAMDYWGQGTSVTVSS VL: DIQMTQSPASLSASVGETVTITCRASENIDSYLAWYQQKQGKSPQLLVYTATLLADGVPSRFSGSGSGTQYSLKINSLQSEDVARYYCQHYYSTPPTFGSGTKLEIKR | 
10 | 2.32 | 35 | 75 | 15100 | 6540 | 22200 | 10200 | CHI-CDH6-4 (antibody, human IgG1, kappa, V domains shown) VH: QVQLQQSGPELVKPGASVKISCKASGYAFSNFWMNWVKQRPGKGLEWIGWIYPGDGDTNYNGKFKDKATLTADKSSSTAYIQLSSLTSEDSAVYFCARLYDAWGFFDYWGQGTTLTVSS VL: QIVLTQSPAIMSASPGQKVTITCSASSSVNYMHWYQQKLGSSPKLWIYDKSKLAPGVPARFSGSGSGTSYSLTISSMEAEDAASYFCHQWSSYPPMTFGGGTKLEIKR | 
11 | 1.62 | 23 |  |  |  |  |  | CHI-CDH6-2 (antibody, human IgG1, kappa, V domains shown) VH: EVQLQQSGPELVKPGASVRISCKASGYTFTDYYMNWVKQSHGKSLEWIGDIDPNNANTTYNQKFKGKATLTVDKSSSTAYMELRSLTSEDSAVYSCASFGYDVEWFGYWGQGTLVTVSA VL: QIVLTQSPALMSASPGEKVTMTCSASSSVSYMYWYQQKPRSSPKPWIYLTSNLASGVPARFSGSGSGTSYSLTISSMEAEDAATYYCQQWSSNPFTFGSGTKLEIKR | 
12 | 2.76 | 16 |  |  |  |  |  | CHI-CDH6-13 (antibody, human IgG1, kappa, V domains shown) VH: DVQLQESGPGLVKPSQSLSLTCSVTGYSITKDSYWNWIRQFPGSKLEWMGFISYDGSRHYNPSLKNRISITRDTSKNQFFLQLNSVTTEDTATYYCARRDYADYWGQGTTLTVSS VL: QIVLTQSPALMSAFPGEKVTMTCSATSSVSYIYWYQQKPRSSPKPWIYLTSNLASGVPARFSGSGSGTSYSLTINSLEAEDAATYYCQQWSSIPYTFGGGTKLEIKR | 
13 | 1.77 | 40 |  |  |  |  |  | CHI-CDH6-11 (antibody, human IgG1, kappa, V domains shown) VH: QIQLQQSGPELVKPGASVRISCKASGYTFTDYYITWVKLRPGQGLEWIGWIYPGSVNIKYNEKFKGKATLTVDTSSSTAYMQLNSLTSEDSAVYFCARGGYSWFPYWGQGTLVTVSA VL: NIVMTQSPKSMSMSVGERVTLSCKASENVHTYVSWYQQKPEQSPKLLFYGASTRNTGVPDRFTGSGSATDFTLTISSVQAEDLADYYCGQSYSYPYTFGSGTKLEIKR | 
14 | 2.42 | 39 | 39100 | 16300 |  | 20600 | 23600 | NOV0712 (antibody, human IgG1, kappa, V domains shown) VH: QVQLLESGGGLVQPGGSLRLSCAASGFTFSSHGMHWVRQAPGKGLEWVSVISGSGSNTGYADSVKGRFTISRDNSKNTLYLQMNSLRAEDTAVYYCARQWGSYAFDSWGQGTLVTVSS VL: DIQMTQSPSSLSASVGDRVTITCRASQSISSYLNWYQQKPGKAPKLLIYAVSTLQSGVPSRFSGSGSGTDFTLTISSLQPEDFATYYCQQSGTFPPTTFGQGTKVEIKR | 
15 | 2.77 | 22 |  |  |  |  |  | CHI-CDH6-9 (antibody, human IgG1, kappa, V domains shown) VH: QVQLQQPGAELVKPGASVKLSCKASGYTFTGYWMHWVRQRPGQGLEWIGEINPNNGGTNCNEQFKNKATLTVDKSSSTAYMQLSSLTSEDSAVFYCTISFGNYLFFDVWGAGTTVTVSS VL: DIQMTQSPASLAASVGETITITCQASENIYFSLAWYQQKQGKSPQLLIYNANTLEDGVPSRFVGSGSGTQYSMKINSIQPEDTATYFCDQTYDFPWTFGGGTKLEIKR | 
